From patent US11198713B2, “Agents modulating beta-catenin functions and methods thereof” (FOG PHARMACEUTICALS, INC., priority 2017, dated 2021)
Numbered stars: 1 amine (or outer) side, 2 acyl side, 3 side chain; on linkers, the order of the positions; unused ones are H or OH. Bridge positions count the residues as written; N and C are the ends. Square brackets hold non-standard residues; d marks the D form. Primed or numbered codes have the meaning given here. MB(3) = Monomer B = PyrS, pyrrolidine stapling residue with allyl carbamate; MI = Monomer I = ReN, acyclic amine-bearing olefin stapling residue; R7 = (R)-2-(6-heptenyl)alanine, C=CCCCCC[C@@](C)(N[*:1])C(=O)[*:2]; R6 = (R)-2-(5-hexenyl)alanine, C=CCCCC[C@@](C)(N[*:1])C(=O)[*:2]; S6 = (S)-2-(5-hexenyl)alanine, C=CCCCC[C@](C)(N[*:1])C(=O)[*:2]; R4 = (R)-2-(3-butenyl)alanine, C=CCC[C@@](C)(N[*:1])C(=O)[*:2]; MG = Monomer G = RdN, acyclic alkyl-N(Alloc) stapling residue; MC = Monomer C = PyrR, Alloc-pyrrolidine stapling residue; MA = Monomer A (Az), N-Alloc azetidine stapling residue; S7 = C[C@@](CCCCCC=[*:3])(N[*:1])C(=O)[*:2]; R5 = C=CCCC[C@@](C)(N)C(=O)O; S5 = C=CCCC[C@](C)(N)C(=O)O; MB(7) = not defined here

T1: full-length beta-catenin (UniProt P35222 2-781, limits assumed)
T1 construct: mature; also called full-length ß-Catenin; β-catenin
T1 sequence (looked up): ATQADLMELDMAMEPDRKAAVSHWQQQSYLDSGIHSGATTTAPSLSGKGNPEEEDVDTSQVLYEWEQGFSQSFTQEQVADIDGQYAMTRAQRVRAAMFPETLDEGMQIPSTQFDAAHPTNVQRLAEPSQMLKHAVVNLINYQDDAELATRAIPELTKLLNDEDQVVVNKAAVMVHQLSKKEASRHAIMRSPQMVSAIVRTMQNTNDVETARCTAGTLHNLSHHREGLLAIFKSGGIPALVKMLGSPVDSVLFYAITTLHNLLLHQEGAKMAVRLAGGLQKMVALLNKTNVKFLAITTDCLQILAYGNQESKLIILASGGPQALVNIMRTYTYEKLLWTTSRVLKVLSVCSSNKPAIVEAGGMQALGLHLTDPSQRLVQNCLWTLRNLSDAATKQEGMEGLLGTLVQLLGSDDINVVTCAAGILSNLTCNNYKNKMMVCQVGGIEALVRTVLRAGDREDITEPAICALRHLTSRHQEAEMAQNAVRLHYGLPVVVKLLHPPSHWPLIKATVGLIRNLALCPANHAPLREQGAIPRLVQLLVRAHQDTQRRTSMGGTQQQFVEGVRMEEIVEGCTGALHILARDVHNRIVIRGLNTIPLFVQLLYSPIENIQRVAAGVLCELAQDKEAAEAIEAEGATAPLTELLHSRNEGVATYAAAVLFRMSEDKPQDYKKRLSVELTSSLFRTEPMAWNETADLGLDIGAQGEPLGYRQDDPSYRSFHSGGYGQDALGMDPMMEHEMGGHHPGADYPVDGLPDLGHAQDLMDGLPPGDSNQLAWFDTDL

B1: FP0767c (peptide)
peptide: Ac-PQ[R6]ILD[MC]HVRRVWR-NH2
modifications: staple 3-7; also: carbamate staple (-N(R')-C(O)-O-) by ring-closing olefin metathesis
notes: also called R6/PR
B2: FP0780c (peptide)
peptide: Ac-PQ[MH]ILD[S5]HVRRVWR-NH2
modifications: staple 3-7; also: carbamate staple (-N(R')-C(O)-O-) by ring-closing olefin metathesis
B3: FP0768c (peptide)
peptide: Ac-PQ[R7]ILD[MC]HVRRVWR-NH2
modifications: staple 3-7; also: carbamate staple (-N(R')-C(O)-O-) by ring-closing olefin metathesis
notes: also called R7/PR
B4: FP0778c (peptide)
peptide: Ac-PQ[MD]ILD[S5]HVRRVWR-NH2
modifications: staple 3-7; not fully specified; also: carbamate staple (-N(R')-C(O)-O-) by ring-closing olefin metathesis
B5: FP0777c (peptide)
peptide: Ac-PQ[R5]ILD[MI]HVRRVWR-NH2
modifications: staple 3-7; also: carbamate staple (-N(R')-C(O)-O-) by ring-closing olefin metathesis
B6: FP0779c (peptide)
peptide: Ac-PQ[MF]ILD[S5]HVRRVWR-NH2
modifications: staple 3-7; also: carbamate staple (-N(R')-C(O)-O-) by ring-closing olefin metathesis
B7: FP0776c (peptide)
peptide: Ac-PQ[R5]ILD[MG]HVRRVWR-NH2
modifications: staple 3-7; also: carbamate staple (-N(R')-C(O)-O-) by ring-closing olefin metathesis
B8: FP0783c (peptide)
peptide: Ac-PQ[MI]ILD[R5]HVRRVWR-NH2
modifications: staple 3-7; also: carbamate staple (-N(R')-C(O)-O-) by ring-closing olefin metathesis
B9: FP0782c (peptide)
peptide: Ac-PQ[MG]ILD[R5]HVRRVWR-NH2
modifications: staple 3-7; also: carbamate staple (-N(R')-C(O)-O-) by ring-closing olefin metathesis

Assays:
full-length beta-catenin [1] = target: T1, full-length beta-catenin; assay: competition FP
Method: (§1) In some embodiments, a competition fluorescence polarization assay is used to assess binding of provided compounds to beta-catenin. In an exemplary procedure, solutions of provided compounds, e.g., provided stapled peptides, were prepared in a buffer (e.g., 50 mM Tris pH 8.0, 250 mM NaCl, 2% glycerol, 0.5 mM EDTA, 0.02% w/v sodium azide) using a 3-fold serial dilution from 5 µM. Probe solution (15 nM full-length ß-Catenin, 20 nM FITC labeled peptide in buffer) was prepared and incubated for a period of time, e.g., 5 minutes, and the a volume, e.g., 40 µL per well plated in suitable plate, e.g., a black polystyrene 384-well plate (Corning). Equal volume of the serial diluted peptide was added to the plate and incubated protected from light for 15 minutes prior to read. Reads were performed on a Spectramax M5 (Molecular Devices) in duplicate. Suitable probe was FITC-PEG1-PQ-S5-ILD-S5-HVRRVWR (SEQ ID NO: 1) (hydrocarbon staple formed by two S5 via olefin metathesis) and/or FITC-bA-PQ-S5-ILD-S5-HVRRVWR (SEQ ID NO: 3) (hydrocarbon staple formed by two S5 via olefin metathesis). […] Another peptide, FPO217c (Ac-AR_8ILDAHIM$B5$RVW (SEQ ID NO: 280), with N-terminal proline removed and valine replaced with isoleucine compared to FP0025c) was prepared.

full-length beta-catenin [2] = target: T1, full-length beta-catenin; assay: competition FP, grade of FP EC50 (++: 100-500 nM)
Method: as §1

full-length beta-catenin [3] = target: T1, full-length beta-catenin; assay: competition FP, grade of FP EC50 (+: 500-5000 nM)
Summary of the method: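 Compound 3-fold serially diluted from 5 µM in Tris pH 8.0, 250 mM NaCl buffer, added to premixed 15 nM full-length β-catenin and 20 nM FITC-labelled stapled axin-site peptide probe. Incubated 15 min in the dark, polarization read in duplicate.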

full-length beta-catenin [4] = target: T1, full-length beta-catenin; assay: competition FP, grade of FP EC50 (+++: <=100 nM)
Method: as §1

EC50 (full-length beta-catenin [1]) [nM] | FP EC50 (full-length beta-catenin [2]) [nM] | FP EC50 (full-length beta-catenin [3]) [nM] | FP EC50 (full-length beta-catenin [4]) [nM] | Binder
110 | 100 to 500 | – | – | Ac-PQ[MC]ILD[R6]HVRRVWR-NH2 (staple 3-7) [FP0745c]
1600 | – | 500 to 5000 | – | Ac-PQ[R6]ILD[MA]HVRRVWR-NH2 (staple 3-7) [FP0735c]
110 | 100 to 500 | – | – | B1
1700 | – | 500 to 5000 | – | B2
150 | 100 to 500 | – | – | B3
80 | – | – | ≤ 100 | Ac-PQ[MA]ILD[R6]HVRRVWR-NH2 (staple 3-7, also called Az/R6) [FP0725c]
2000 | – | 500 to 5000 | – | Ac-PQ[MB(3)]ILD[S5]HVRRVWR-NH2 (staple 3-7) [FP0751c]
1000 | – | 500 to 5000 | – | B4
560 | – | 500 to 5000 | – | B5
1300 | – | 500 to 5000 | – | B6
2700 | – | 500 to 5000 | – | Ac-PQ[R5]ILD[MB(3)]HVRRVWR-NH2 (staple 3-7) [FP0758c]
570 | – | 500 to 5000 | – | B7
460 | 100 to 500 | – | – | Ac-PQ[S6]ILD[MB(7)]HVRRVWR-NH2 (staple 3-7; reading uncertain) [FP0761c]
1800 | – | 500 to 5000 | – | Ac-PQ[S7]ILD[MA]HVRRVWR-NH2 (staple 3-7) [FP0738c]
890 | – | 500 to 5000 | – | Ac-PQ[S6]ILD[MA]HVRRVWR-NH2 (staple 3-7) [FP0736c]
20 | – | – | ≤ 100 | Ac-PQ[R5]ILD[MC]HVRRVWR-NH2 (staple 3-7, also called R5/PR) [FP0766c]
115 | 100 to 500 | – | – | Ac-PQ[S7]ILD[MB(7)]HVRRVWR-NH2 (staple 3-7; reading uncertain, also called S7/PS) [FP0763c]
2600 | – | 500 to 5000 | – | Ac-PQ[MB(3)]ILD[S6]HVRRVWR-NH2 (staple 3-7) [FP0752c]
30 | – | – | ≤ 100 | Ac-PQ[R4]ILD[MC]HVRRVWR-NH2 (staple 3-7, also called R4/PR) [FP0765c]
740 | – | 500 to 5000 | – | Ac-PQ[MC]ILD[R5]HVRRVWR-NH2 (staple 3-7) [FP0743c]
990 | – | 500 to 5000 | – | B8
380 | 100 to 500 | – | – | B9
